Values quoted from earlier work in paper PMC3470569.

Target: V-ATPase subunit a proximal lobe of N-terminal domain (Saccharomyces cerevisiae) (UniProt P32563)
Sequence (P32563 104-372): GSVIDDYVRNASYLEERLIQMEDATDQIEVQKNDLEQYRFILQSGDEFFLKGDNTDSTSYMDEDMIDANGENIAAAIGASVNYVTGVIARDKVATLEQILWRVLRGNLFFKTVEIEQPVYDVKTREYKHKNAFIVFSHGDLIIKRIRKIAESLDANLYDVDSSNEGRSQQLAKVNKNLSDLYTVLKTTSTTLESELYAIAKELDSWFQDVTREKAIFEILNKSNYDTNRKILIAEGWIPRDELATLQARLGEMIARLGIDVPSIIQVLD

Sequence of V-ATPase subunit C Cfoot (P31412 158-277): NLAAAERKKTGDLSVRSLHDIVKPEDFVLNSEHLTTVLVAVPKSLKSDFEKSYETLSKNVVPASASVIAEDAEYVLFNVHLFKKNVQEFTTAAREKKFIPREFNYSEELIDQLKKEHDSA

- Kd: 30 µM
Substance: V-ATPase subunit C Cfoot (from UniProt P31412)
